Patent US20230059341A1 (TESARO, published 2023)
Like-named read-outs stand apart in the source and are kept apart here.

B1: Dostarlimab, Unstressed Control (antibody, human IgG4 S228P, kappa)
heavy: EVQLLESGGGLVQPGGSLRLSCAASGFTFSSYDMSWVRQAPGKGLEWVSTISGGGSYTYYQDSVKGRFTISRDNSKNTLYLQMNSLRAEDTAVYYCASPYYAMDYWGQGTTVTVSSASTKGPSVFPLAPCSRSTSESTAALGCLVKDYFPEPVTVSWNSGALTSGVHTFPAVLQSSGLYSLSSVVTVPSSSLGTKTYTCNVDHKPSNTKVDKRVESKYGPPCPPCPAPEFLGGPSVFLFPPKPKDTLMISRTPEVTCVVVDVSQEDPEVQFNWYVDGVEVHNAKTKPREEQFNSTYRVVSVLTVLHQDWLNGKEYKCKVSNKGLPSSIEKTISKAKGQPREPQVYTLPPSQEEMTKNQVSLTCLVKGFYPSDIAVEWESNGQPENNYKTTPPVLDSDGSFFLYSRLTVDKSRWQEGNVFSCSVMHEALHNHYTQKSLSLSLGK
light: DIQLTQSPSFLSAYVGDRVTITCKASQDVGTAVAWYQQKPGKAPKLLIYWASTLHTGVPSRFSGSGSGTEFTLTISSLQPEDFATYYCQHYSSYPWTFGQGTKLEIKRTVAAPSVFIFPPSDEQLKSGTASVVCLLNNFYPREAKVQWKVDNALQSGNSQESVTEQDSKDSTYSLSSTLTLSKADYEKHKVYACEVTHQGLSSPVTKSFNRGEC
modifications: percent of population: Met 248 oxidation 3.0; Asp 261/266/276 isomerization 1.0; Asn 311 deamidation 6.0; Asn 380 deamidation 8.4; Asn 430 deamidation 1.2; Lys 443 clipped 97.8
notes: Control of the forced degradation study (DS batch #1); HMW 0.9%
B2: Dostarlimab, H2O2 treated, T0 (exposed to H2O2, no incubation) (antibody, human IgG4 S228P, kappa)
heavy: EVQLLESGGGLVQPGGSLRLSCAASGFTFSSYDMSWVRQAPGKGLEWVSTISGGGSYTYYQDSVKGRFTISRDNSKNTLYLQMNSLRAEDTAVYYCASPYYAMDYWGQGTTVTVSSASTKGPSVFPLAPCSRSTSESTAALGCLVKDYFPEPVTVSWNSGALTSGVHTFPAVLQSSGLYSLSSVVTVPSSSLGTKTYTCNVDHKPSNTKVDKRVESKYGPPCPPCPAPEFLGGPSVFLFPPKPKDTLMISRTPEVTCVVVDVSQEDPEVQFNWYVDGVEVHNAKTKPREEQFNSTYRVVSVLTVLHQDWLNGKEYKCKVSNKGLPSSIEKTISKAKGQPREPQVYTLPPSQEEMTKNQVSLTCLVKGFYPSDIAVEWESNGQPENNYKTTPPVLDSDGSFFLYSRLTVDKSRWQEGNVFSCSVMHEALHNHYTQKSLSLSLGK
light: B1 light
modifications: percent of population: Asn 137 deamidation 1.3; percent of population: Met 103 oxidation 1.2; Met 248 oxidation 47.1; Asn 311 deamidation 6.8; Met 354 oxidation 16.7; Asn 380 deamidation 10.7; Asn 385 deamidation 1.7; Met 424 oxidation 29.0; Lys 443 clipped 97.2
notes: 0.1% (v:v) H2O2, quenched at once with methionine; also called H2O2 T0; Peroxide (H2O2) Oxidation
B3: Dostarlimab, photo degraded, Vis light, 25° C., 1 week and UV light, 25° C., 1 week (antibody, human IgG4 S228P, kappa)
heavy: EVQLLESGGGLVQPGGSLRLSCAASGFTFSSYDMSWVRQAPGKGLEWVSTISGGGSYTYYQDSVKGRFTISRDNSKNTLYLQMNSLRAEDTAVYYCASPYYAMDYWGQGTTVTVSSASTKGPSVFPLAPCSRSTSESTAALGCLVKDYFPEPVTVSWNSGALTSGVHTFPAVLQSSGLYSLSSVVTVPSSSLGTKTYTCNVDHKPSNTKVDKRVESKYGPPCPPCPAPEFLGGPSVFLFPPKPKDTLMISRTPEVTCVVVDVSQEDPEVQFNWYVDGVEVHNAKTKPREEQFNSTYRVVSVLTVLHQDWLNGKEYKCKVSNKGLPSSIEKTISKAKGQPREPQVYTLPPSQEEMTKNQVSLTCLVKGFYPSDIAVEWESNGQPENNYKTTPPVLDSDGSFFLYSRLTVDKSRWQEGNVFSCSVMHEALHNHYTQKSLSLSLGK
light: B1 light
modifications: percent of population: Trp 50 oxidation 4.8; percent of population: Met 248 oxidation 33.4; Asp 261/266/276 isomerization 1.0; Asn 311 deamidation 6.4; Met 354 oxidation 10.9; Asn 380 deamidation 9.5; Asn 385 deamidation 1.3; Met 424 oxidation 27.0; Asn 430 deamidation 1.2; Lys 443 clipped 97.8
notes: Mixture; HMW 3.3%; also called Photolysis

Legend:
[1] = target: T1, human PD-1 on PD-1 effector cells (Jurkat T cells, Promega #J1155) (human, UniProt Q15116 25-288); test: cell-based or functional assay
T1 sequence (Q15116 25-288): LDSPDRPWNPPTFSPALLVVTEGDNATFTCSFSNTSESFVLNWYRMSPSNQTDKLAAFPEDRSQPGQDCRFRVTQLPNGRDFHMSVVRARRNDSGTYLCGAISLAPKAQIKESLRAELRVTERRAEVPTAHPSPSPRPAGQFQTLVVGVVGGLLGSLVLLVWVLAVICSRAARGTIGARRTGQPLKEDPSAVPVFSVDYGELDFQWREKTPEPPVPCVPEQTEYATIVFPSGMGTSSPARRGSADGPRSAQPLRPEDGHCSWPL

[2] = target: T1, human PD-1 on PD-1 effector cells …; test: cell-based or functional assay; remark: listed apart in the source
[3] = target: T2, PD-1 protein constitutively expressed on engineered CHO K1 cells (UniProt Q15116 25-288, limits assumed); test: MSD potency assay: competitive binding on CHO K1 cells expressing PD-1, inhibition of PD-L1-mFc binding, ECL; percent of reference material
T2 construct: whole, on cells; also called programmed cell death protein 1
T2 sequence (Q15116 25-288 limits assumed, change not shown): as the sequence (Q15116 25-288) above
Experimental: (§1) The Meso Scale Discovery (MSD) potency assay employs engineered CHO K1 cells constitutively expressing the PD-1 protein. […] The readout is measured using a specific detection antibody mixture that releases an electrochemiluminescence (ECL) signal that can be quantified.

[4] = target: T2, PD-1 protein constitutively expressed …; test: as above; remark: listed apart in the source
Experimental: as §1

[5] = target: T3, Neonatal Fc Receptor (FcRn) (UniProt P55899 24-297; P61769 21-119, limits assumed); test: FcRn binding assay, BIACORE (SPR)
[6] = target: T1, human PD-1 on PD-1 effector cells …; test: cell-based or functional assay; remark: listed apart in the source
[7] = target: T1, human PD-1 on PD-1 effector cells …; test: cell-based or functional assay; remark: listed apart in the source
[8] = target: T2, PD-1 protein constitutively expressed …; test: MSD potency assay: competitive binding on CHO K1 cells expressing PD-1, inhibition of PD-L1-mFc binding, ECL; percent of reference material; remark: listed apart in the source
Experimental: as §1

[9] = target: T1, human PD-1 on PD-1 effector cells …; test: cell-based or functional assay; remark: listed apart in the source
[10] = target: T3, Neonatal Fc Receptor (FcRn); test: FcRn binding assay, BIACORE (SPR); remark: listed apart in the source
[11] = target: T3, Neonatal Fc Receptor (FcRn); test: FcRn binding assay, BIACORE (SPR); remark: listed apart in the source
[12] = target: T3, Neonatal Fc Receptor (FcRn); test: FcRn binding assay, BIACORE (SPR); remark: listed apart in the source
[13] = target: T3, Neonatal Fc Receptor (FcRn); test: FcRn binding assay, BIACORE (SPR); remark: listed apart in the source
[14] = target: T2, PD-1 protein constitutively expressed …; test: MSD potency assay: competitive binding on CHO K1 cells expressing PD-1, inhibition of PD-L1-mFc binding, ECL; percent of reference material; remark: listed apart in the source
Experimental: as §1

[15] = target: T3, Neonatal Fc Receptor (FcRn); test: FcRn binding assay, BIACORE (SPR); remark: listed apart in the source
[16] = target: T3, Neonatal Fc Receptor (FcRn); test: FcRn binding assay, BIACORE (SPR); T0 (exposed to H2O2, no incubation)

| Relative Potency, Cell-Based Bioassay [1] | Relative Potency, Cell-Based Bioassay [2] | Relative Potency, MSD Binding [3] | Relative Potency, MSD Binding [4] | Kd [5] | Relative Potency (Potency by cell-based bioassay) [6] | Relative Potency, Cell-Based Bioassay [7] | Relative Potency, MSD Binding [8] | Relative Potency, Cell-Based Bioassay [9] | Kd [10] | Kd [11] | Kd [12] | Kd [13] | Relative Potency, MSD Binding [14] | Kd [15] | Kd [16] | Binder |
| --- | --- | --- | --- | --- | --- | --- | --- | --- | --- | --- | --- | --- | --- | --- | --- | --- |
| 98% | 98% | 88% | 88% | 2140 nM | 98% | 98% | 88% | 98% | 2140 nM | 2140 nM | 2140 nM | 2140 nM | 88% | 2140 nM |  | B1 |
| 94% |  |  |  |  | 94% |  |  |  |  |  |  |  | 95% |  | 4380 nM | B2 |
|  |  |  |  |  | 90% |  |  |  |  |  |  |  |  | 2490 nM |  | B3 |
